Article PMC2679207, “GLS-1, a Novel P Granule Component, Modulates a Network of Conserved RNA Regulators to Influence Germ Cell Fate Decisions” (PLoS Genetics, 2009)

Molecular target: T1, GLD-3L with C-terminal His tag, MBP cleaved off (C. elegans, UniProt Q95ZK7-1 1-969)
T1 construct: GLD-3, C. elegans, isoform GLD-3L; also called GLD-3L^6His; source: insect cells, purified on amylose beads, MBP cleaved off by PreScission protease; not shown: MBP, N-terminal, cleaved; His6, C-terminal, kept
T1 sequence (looked up): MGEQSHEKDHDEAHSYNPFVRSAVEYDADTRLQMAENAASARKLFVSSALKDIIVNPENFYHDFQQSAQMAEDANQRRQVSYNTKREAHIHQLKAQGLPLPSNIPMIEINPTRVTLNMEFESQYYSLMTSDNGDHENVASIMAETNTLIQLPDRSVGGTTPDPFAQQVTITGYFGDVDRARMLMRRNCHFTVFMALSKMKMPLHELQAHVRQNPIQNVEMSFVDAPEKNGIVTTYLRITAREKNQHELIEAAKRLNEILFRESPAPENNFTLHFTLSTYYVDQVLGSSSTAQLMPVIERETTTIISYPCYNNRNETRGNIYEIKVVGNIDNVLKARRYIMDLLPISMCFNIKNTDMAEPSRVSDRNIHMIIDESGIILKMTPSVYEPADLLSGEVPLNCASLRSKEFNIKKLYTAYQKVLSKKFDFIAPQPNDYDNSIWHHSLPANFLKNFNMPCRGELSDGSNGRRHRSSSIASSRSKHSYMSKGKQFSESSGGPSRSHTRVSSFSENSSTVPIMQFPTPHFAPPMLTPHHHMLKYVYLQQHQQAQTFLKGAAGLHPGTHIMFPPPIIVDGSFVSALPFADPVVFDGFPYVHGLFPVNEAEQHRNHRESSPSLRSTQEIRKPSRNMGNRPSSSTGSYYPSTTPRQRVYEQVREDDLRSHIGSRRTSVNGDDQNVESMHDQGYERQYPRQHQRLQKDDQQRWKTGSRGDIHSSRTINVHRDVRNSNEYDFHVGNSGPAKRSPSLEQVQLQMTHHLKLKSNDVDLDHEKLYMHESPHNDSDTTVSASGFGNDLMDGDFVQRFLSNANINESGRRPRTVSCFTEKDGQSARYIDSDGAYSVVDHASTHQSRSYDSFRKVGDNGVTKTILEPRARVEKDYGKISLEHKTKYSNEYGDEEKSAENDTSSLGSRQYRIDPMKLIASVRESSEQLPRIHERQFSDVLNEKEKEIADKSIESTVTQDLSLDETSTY
Assay: pull-down; competition assay; MBP-FBF-1 immobilized on amylose beads, loaded with GLD-3L, then challenged with increasing amounts of free GLS-1; washed; GLD-3L on beads quantified from Western blot bands
Conditions: both partners purified

binding result: binds
B1: MBP-FBF-1 with C-terminal His tag, from insect cells (natural protein, C. elegans, UniProt Q9N5M6 1-614, looked up)
chain: MDQSKMRYTNQFRKTPQKPTSTEVGNHHTPAHSPMAQHETSMWNFNSLNPYFSMLNMNDGMNYARHQQNHIVTSRPPTPLTDLMSLRSFQSFPNVFMPVSRSRTSSFIQSDTDSSRLEPDDFSQNVRYCSTEIDRNNSSSKNDHLKYSRPALSRNSRSFTRSNNVLPTWSLDSNGEMRSRLSLSEVLDSGDLMKFAVDKTGCQFLEKAVKGSLTSYQKFQLFEQVIGRKDDFLKLSTNIFGNYFVQEIIGMSLTTYDDDNIKRQEKLKNFISSQMTDMCLDKFACRVIQSSLQNMDLSLACKLVQALPRDARLIAICVDQNANHVIQKVVAVIPLKNWEFIVDFVATPEHLRQICFDKYGCRVVQTIIEKLTADSINVDLTSAAQHLRERALQRLMTSVTNRCQELATNEYANYIIQHIVSNDDLAVYRECIIEKCLMRNLLSLSQEKFASHVVEKAFLHAPMELLAEMMDEIFDGYMPHPGTGKDALDIMMFHQFGNYVVQCMLTICCDAVSGRRQTKEGSYDHANSFQVWLKKLHSRVTKERHRLSRFSSGKKMIETLAHLRSTHPIYGLQSSGHESFKTDCFSTASEHDGLELEKNGIEEGNLRLMRTFSP
notes: FBF-1, PUF protein, C. elegans; also called MBP-FBF-1^6His; source: insect cells, purified on amylose beads; not shown: His6, C-terminal, kept
